Experimental data from patent US20130004505A1 (CELLTRION, published 2013).

Assays:
Assay in all cases: cell-based or functional assay
[1] = target: T1, HA of influenza A virus H1N1 A/Texas/05/2009-RG15 (pandemic), on virus (influenza A virus H1N1 …)
[2] = target: T2, HA of influenza A virus H1N1 A/New York/18/2009-RG18 (pandemic), on virus (influenza A virus H1N1 (A/New …))
[3] = target: HA of influenza A virus H1N1 A/Solomon Islands/3/2006 (seasonal), on virus (influenza A virus H1N1 (A/Solomon …))
[4] = target: HA of influenza A virus H1N1 A/Ohio/83 (seasonal), on virus (influenza A virus H1N1 (A/Ohio/83))
[5] = target: HA of influenza A virus H2N2 A/Ann Arbor/6/60 ca, on virus (influenza A virus H2N2 (A/Ann …))
[6] = target: HA of influenza A virus H5N1 A/Vietnam/1203/04, on virus (influenza A virus H5N1 …)
[7] = target: HA of influenza A virus H5N1 A/Anhui/1/05, on virus (influenza A virus H5N1 (A/Anhui/1/05))
[8] = target: HA of influenza A virus H3N2 A/Wisconsin/67/2005, on virus (influenza A virus H3N2 …)
[9] = target: T1, HA of influenza A virus H1N1 …; remark: listed apart in the source
[10] = target: T2, HA of influenza A virus H1N1 A/New …; remark: listed apart in the source
[11] = target: T1, HA of influenza A virus H1N1 …; remark: listed apart in the source
[12] = target: T2, HA of influenza A virus H1N1 A/New …; remark: listed apart in the source

| Binder | MN assay: lowest antibody concentration at which no virus antigen was detected [1] [µg/mL] | MN assay: lowest antibody concentration at which no virus antigen was detected [2] [µg/mL] | MN assay: lowest antibody concentration at which no virus antigen was detected [3] [µg/mL] | MN assay: lowest antibody concentration at which no virus antigen was detected [4] [µg/mL] | MN assay: lowest antibody concentration at which no virus antigen was detected [5] [µg/mL] | MN assay: lowest antibody concentration at which no virus antigen was detected [6] [µg/mL] | MN assay: lowest antibody concentration at which no virus antigen was detected [7] [µg/mL] | MN assay: lowest antibody concentration at which no virus antigen was detected [8] [µg/mL] | Antibody concentration* (neutralizing antibody concentration) [9] [µg/mL] | IC50 of neutralizing activity [9] [µg/mL] | Antibody concentration* (neutralizing antibody concentration) [10] [µg/mL] | IC50 of neutralizing activity [10] [µg/mL] | Hemagglutination-inhibition test: hemagglutination inhibition end point [11] [µg/mL] | Hemagglutination-inhibition test: hemagglutination inhibition end point [12] [µg/mL] |
| --- | --- | --- | --- | --- | --- | --- | --- | --- | --- | --- | --- | --- | --- | --- |
| CT120 antibody (antibody, V domains shown) VH: QVQLVQSGAEVKMPGSSVKVSCKTSGVFFSSHAISWVRQAPGQGLEWMGGISPMFGTTHYAQKFQGRVTITADQSTTTAYMELTSLTSEDTAVYYCARDGAGSYYPLNWFDPWGQGTLVTVSS VL: EIVLTQSPATLSLSPGERATLSCRASENIWNNLAWYQQKPGQAPRLLISGASTGATGVPSRFRGSGSRTEFTLTISSLQSEDFAIYFCQQYNSWPRTFGPGTKVEIKR | 0.313 | 0.313 | 0.625 | 0.156 | 2.5 | 1.25 | 0.625 | > 10 | 0.156 | 0.15 | 0.313 | 0.31 | > 20 | > 20 |
| CT104 antibody (antibody, V domains shown) VH: QVQLVQSGAEVKKPGSSVKVSCKASGGTLNNYAISWVRQAPGQGLEWMGGISPIFGTLNYAERFQGRVTITADVFTNTVYMELSSLRSEDTAVYFCARGCGYNCYYFDGWGQGTLVTVSS VL: EIVLTQSPGTLSLSPGERATLSCRASQSLSSSSLVWYQQKPGQAPRLLIYGASSRATGIPDRFSGSGSGTDFTLTISRLEPEDFAVYYCQQYGNSPYTFGQGTQVEIKR | 0.313 | 0.625 | 0.625 | 0.313 | > 10 | 1.25 | 0.625 | > 10 | 0.313 | 0.29 | 1.25 | 0.56 | > 20 | > 20 |
| CT123 antibody (antibody, V domains shown) VH: QVQLVESGGGVVQPGRSLRLSCAASGFTFSRFGIHWVRQAPGKGLEWMAVIWYDGSNKFYADSVKGRFTISRDNSKNTVYLQMNSLRAEDTAVYYCAKDSRGYCSSIICFEGGLDNWGQGTLVTVSS VL: ETVLTQSPGTLSLSPGERATLSCRASQSVSISYLAWYQRKPGQAPRLLIYGASRRATGIPDRFSGSGSGTDFTLTISRLEPEDFAVYYCQQYGSSPYTFGQGTKLEIKR | 0.313 | 0.625 | 1.25 | 0.313 | > 10 | > 10 | > 10 | > 10 | 0.625 | 0.068 | 1.25 | 0.29 | > 20 | > 20 |
